This is an account of results in PMC10680678.

Like-named read-outs stand apart in the source and are kept apart here.

Usually Kd stands for a measure of binding affinity in units of concentration. A higher Kd goes with lower affinity.

The target in experiment [1] is Mouse CD44 extracellular domain (mouse) (UniProt P15379). Put plainly: ITC.
Experiment [2] deals with Human CD44 extracellular domain (human) (UniProt P16070). In words: ITC. On the technique in general: ITC needs no label: the signal is the heat of the interaction.
Experiment [3] concerns the target Biotinylated avi-tagged human TβRI (human) (UniProt P36897). Put plainly: SPR.
Experiment [4] has as its target Biotinylated avi-tagged human TβRII (human) (UniProt P37173). Put plainly: SPR. A general note: In SPR one partner is held on a chip, and binding of the other changes the refractive index at the surface.
The target in experiment [5] is Biotinylated avi-tagged human TβRI (human) (UniProt P36897). Put plainly: SPR. The source holds these as a separate data set.

Sequence of UniProt P36897 (P36897 34-126): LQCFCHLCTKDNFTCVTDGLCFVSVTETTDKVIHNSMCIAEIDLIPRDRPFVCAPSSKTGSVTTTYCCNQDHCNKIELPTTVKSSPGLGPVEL
Sequence of UniProt P15379 (P15379 23-685): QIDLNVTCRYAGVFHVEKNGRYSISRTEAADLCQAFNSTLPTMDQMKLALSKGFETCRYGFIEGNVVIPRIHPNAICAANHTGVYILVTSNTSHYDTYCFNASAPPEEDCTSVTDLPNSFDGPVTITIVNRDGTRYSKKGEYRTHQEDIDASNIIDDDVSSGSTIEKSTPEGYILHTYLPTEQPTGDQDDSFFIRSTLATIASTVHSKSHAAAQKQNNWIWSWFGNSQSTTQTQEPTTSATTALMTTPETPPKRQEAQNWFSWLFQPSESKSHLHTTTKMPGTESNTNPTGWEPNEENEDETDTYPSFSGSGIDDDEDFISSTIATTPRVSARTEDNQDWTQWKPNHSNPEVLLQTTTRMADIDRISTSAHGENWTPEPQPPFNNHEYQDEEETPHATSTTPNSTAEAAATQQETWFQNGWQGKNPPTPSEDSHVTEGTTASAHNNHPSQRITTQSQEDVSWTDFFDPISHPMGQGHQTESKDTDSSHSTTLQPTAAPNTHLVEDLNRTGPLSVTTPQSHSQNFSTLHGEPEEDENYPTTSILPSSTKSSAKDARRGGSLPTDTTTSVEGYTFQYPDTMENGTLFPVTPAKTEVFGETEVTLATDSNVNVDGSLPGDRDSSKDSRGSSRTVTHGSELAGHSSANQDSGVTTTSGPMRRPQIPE
Sequence of UniProt P16070 (P16070 21-649): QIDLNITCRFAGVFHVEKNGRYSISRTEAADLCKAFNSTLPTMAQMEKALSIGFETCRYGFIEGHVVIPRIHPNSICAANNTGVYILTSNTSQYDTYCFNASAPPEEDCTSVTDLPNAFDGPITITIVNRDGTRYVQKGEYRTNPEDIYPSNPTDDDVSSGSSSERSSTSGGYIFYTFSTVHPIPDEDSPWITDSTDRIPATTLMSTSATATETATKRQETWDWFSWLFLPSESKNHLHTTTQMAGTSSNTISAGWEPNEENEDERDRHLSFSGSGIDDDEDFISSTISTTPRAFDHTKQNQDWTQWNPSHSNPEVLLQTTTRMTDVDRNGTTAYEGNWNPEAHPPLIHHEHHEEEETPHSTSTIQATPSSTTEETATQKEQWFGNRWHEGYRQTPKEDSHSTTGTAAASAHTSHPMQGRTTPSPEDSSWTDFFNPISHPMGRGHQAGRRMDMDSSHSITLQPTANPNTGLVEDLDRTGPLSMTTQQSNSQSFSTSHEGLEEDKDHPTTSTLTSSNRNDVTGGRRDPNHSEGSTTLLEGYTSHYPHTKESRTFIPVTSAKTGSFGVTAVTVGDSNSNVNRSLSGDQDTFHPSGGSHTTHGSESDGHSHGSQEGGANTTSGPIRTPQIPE
Sequence of UniProt P37173 (P37173 23-166): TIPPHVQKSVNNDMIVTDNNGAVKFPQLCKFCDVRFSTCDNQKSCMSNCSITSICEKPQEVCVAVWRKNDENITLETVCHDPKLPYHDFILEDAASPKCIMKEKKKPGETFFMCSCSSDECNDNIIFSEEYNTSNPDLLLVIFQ

Take TGM1 D4-5 fragment (domain or fragment): the Kd in experiment [1] was found to be 0.062 µM; in experiment [2], 0.14 µM.

“TGM1 full-length recombinant protein (natural protein)” yielded a dissociation constant Kd in experiment [3] of 0.07 µM.

Take “TGM4 full-length recombinant protein (natural protein)”: the Kd is 116 µM in experiment [4], 0.0032 µM in experiment [3] and 0.003 to 0.005 µM in experiment [5].

On to “TGM4 D4-5 recombinant protein (domain or fragment)”, for which the results for the Kd in experiment [1] and in experiment [2] were 0.02 µM and 0.056 µM, respectively.
